Reference: paper PMC12809092 (2025)

Columns and labels:
[1] = target: T1, PLXNA1-LBD, recombinant human plexinA1 ligand-binding domains (human, UniProt Q9UIW2 27-710); experiment: BLI
T1 chain: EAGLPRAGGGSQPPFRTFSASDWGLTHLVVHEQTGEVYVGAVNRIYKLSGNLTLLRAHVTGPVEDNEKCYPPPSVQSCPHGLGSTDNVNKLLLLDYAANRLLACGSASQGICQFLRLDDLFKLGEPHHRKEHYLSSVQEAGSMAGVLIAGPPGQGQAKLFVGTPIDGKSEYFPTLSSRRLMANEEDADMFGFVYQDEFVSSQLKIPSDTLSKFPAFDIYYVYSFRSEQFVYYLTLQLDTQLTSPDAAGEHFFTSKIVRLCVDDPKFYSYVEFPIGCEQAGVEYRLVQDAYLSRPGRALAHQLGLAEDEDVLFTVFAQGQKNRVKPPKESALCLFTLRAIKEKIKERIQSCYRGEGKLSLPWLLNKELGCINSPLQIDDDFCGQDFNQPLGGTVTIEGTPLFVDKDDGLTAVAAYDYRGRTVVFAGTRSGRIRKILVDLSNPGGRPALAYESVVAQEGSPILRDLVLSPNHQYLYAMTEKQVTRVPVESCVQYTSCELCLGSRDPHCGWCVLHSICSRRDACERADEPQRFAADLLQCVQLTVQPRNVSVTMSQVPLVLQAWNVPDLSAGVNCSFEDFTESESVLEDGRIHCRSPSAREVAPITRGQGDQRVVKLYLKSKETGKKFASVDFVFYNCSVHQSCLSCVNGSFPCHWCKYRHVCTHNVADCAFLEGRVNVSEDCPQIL

[2] = target: PLXNA1-ECD, recombinant human plexinA1 full extracellular domains (human, UniProt Q9UIW2 27-1244); experiment: BLI

koff [1]: 0.000252 s⁻¹
koff [2]: 0.000111 s⁻¹
B1: aPLXNA1-19-43 Fab (Fab, V domains shown)
VH: EVQLQQSGPELVKPGASVKISCKASGYKFTENYMDWVKQSHGESLEWIGDISPDNGDTSYNQKFRDKATLTVDKSSSTAYMELRSLTSEDSAVYYCAQIIYYDYVGYALDYWGQGTSVTVSS
VL: QIVLTQSPAILSASPGEKVTMSCSVSSSITYMHWYQQKPGTSPKRWIYDTSKLASGVPARFSGSGSGTSFSLTISNMEAEDAATYYCHQRSSYPYSFGGGTKLEIK
